Reference: the supplement of paper PMC5998384

How the values were obtained:
[1] = tested on: HeLa Kyoto; test: thermal stability score vs G1/S (z-score of summed log2 fold changes over temperatures); higher = more thermally stable than in G1/S
[2] = tested on: HeLa Kyoto; test: solubility in G1/S (NP-40 vs SDS abundance) (log2 ratio); higher = more soluble; details: cell cycle stage: G1/S
[3] = tested on: HeLa Kyoto; test: melting temperature (median over replicates), in situ; higher = more thermally stable
[4] = tested on: HeLa Kyoto; test: solubility change mitosis vs G1/S (difference of NP-40 vs SDS log2 ratios) (log2 ratio difference); higher = more soluble in mitosis
[5] = cell cycle stage: early G1 (4.5 h after nocodazole release)
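Wherever melting temperature (median over replicates), in situ is given: HeLa Kyoto cells synchronized by double thymidine or nocodazole block, proteins quantified by TMT10plex mass spectrometry, three independent biological replicates.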
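Wherever solubility change mitosis vs G1/S (difference of NP-40 vs SDS log2 ratios) is given: synchronized HeLa Kyoto cells (double thymidine block for G1/S, nocodazole release for mitosis), protein amounts in NP-40 versus SDS lysates quantified by mass spectrometry, three biological replicates.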
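Wherever solubility in G1/S (NP-40 vs SDS abundance) is given: HeLa Kyoto cells arrested at G1/S by double thymidine block, proteins quantified by TMT10plex mass spectrometry in mild NP-40 versus SDS extracts, three biological replicates.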
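Wherever thermal stability score vs G1/S (z-score of summed log2 fold changes over temperatures) is given: synchronized HeLa Kyoto cells, proteins quantified by TMT10plex mass spectrometry, three biological replicates, mitosis taken 0.5 h after nocodazole release, G1/S directly after double thymidine block.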

Sequence | thermal stability score [1, 5] | thermal stability score ([1]; cell cycle stage: mitosis) | solubility in G1/S (log2) [2] | melting temperature ([3]; cell cycle stage: G1/S) | melting temperature ([3]; cell cycle stage: mitosis) | solubility change mitosis (log2) [4]
MPAGRAARTCALLALCLLGAGAQDFGPTRFICTSVPVDADMCAASVAAGGAEELRSSVLQLRETVLQQKETILSQKETIRELTAKLGRCESQSTLDPGAGEARAGGGRKQPGSGKNTMGDLSRTPAAETLSQLGQTLQSLKTRLENLEQYSRLNSSSQTNSLKDLLQSKIDELERQVLSRVNTLEEGKGGPRNDTEERVKIETALTSLHQRISELEKGQKDNRPGDKFQLTFPLRTNYMYAKVKKSLPEMYAFTVCMWLKSSATPGVGTPFSYAVPGQANELVLIEWGNNPMEILINDKVAKLPFVINDGKWHHICVTWTTRDGVWEAYQDGTQGGSGENLAPYHPIKPQGVLVLGQEQDTLGGGFDATQAFVGELAHFNIWDRKLTPGEVYNLATCSTKALSGNVIAWAESHIEIYGGATKWTFEACRQIN [NPTX1] | 3.28 | 3.79 | 0.224 | 54 °C | 55.4 °C | -0.119
MTSHYVIAIFALMSSCLATAGPEPGALCELSPVSASHPVQALMESFTVLSGCASRGTTGLPQEVHVLNLRTAGQGPGQLQREVTLHLNPISSVHIHHKSVVFLLNSPHPLVWHLKTERLATGVSRLFLVSEGSVVQFSSANFSLTAETEERNFPHGNEHLLNWARKEYGAVTSFTELKIARNIYIKVGEDQVFPPKCNIGKNFLSLNYLAEYLQPKAAEGCVMSSQPQNEEVHIIELITPNSNPYSAFQVDITIDIRPSQEDLEVVKNLILILKCKKSVNWVIKSFDVKGSLKIIAPNSIGFGKESERSMTMTKSIRDDIPSTQGNLVKWALDNGYSPITSYTMAPVANRFHLRLENNAEEMGDEEVHTIPPELRILLDPGALPALQNPPIRGGEGQNGGLPFPFPDISRRVWNEEGEDGLPRPKDPVIPSIQLFPGLREPEEVQGSVDIALSVKCDNEKMIVAVEKDSFQASGYSGMDVTLLDPTCKAKMNGTHFVLESPLNGCGTRPRWSALDGVVYYNSIVIQVPALGDSSGWPDGYEDLESGDNGFPGDMDEGDASLFTRPEIVVFNCSLQQVRNPSSFQEQPHGNITFNMELYNTDLFLVPSQGVFSVPENGHVYVEVSVTKAEQELGFAIQTCFISPYSNPDRMSHYTIIENICPKDESVKFYSPKRVHFPIPQADMDKKRFSFVFKPVFNTSLLFLQCELTLCTKMEKHPQKLPKCVPPDEACTSLDASIIWAMMQNKKTFTKPLAVIHHEAESKEKGPSMKEPNPISPPIFHGLDTLTVMGIAFAAFVIGALLTGALWYIYSHTGETAGRQQVPTSPPASENSSAAHSIGSTQSTPCSSSSTA [TGFBR3] | 1.1 | 2.26 | -0.155 | 53.8 °C | 54.4 °C | -0.094
MLFYSFFKSLVGKDVVVELKNDLSICGTLHSVDQYLNIKLTDISVTDPEKYPHMLSVKNCFIRGSVVRYVQLPADEVDTQLLQDAARKEALQQKQ [LSM2] | -1.17 | -1.99 | -0.0676 | 59.9 °C | 57.5 °C | 0.0659
MRFRIYKRKVLILTLVVAACGFVLWSSNGRQRKNEALAPPLLDAEPARGAGGRGGDHPSVAVGIRRVSNVSAASLVPAVPQPEADNLTLRYRSLVYQLNFDQTLRNVDKAGTWAPRELVLVVQVHNRPEYLRLLLDSLRKAQGIDNVLVIFSHDFWSTEINQLIAGVNFCPVLQVFFPFSIQLYPNEFPGSDPRDCPRDLPKNAALKLGCINAEYPDSFGHYREAKFSQTKHHWWWKLHFVWERVKILRDYAGLILFLEEDHYLAPDFYHVFKKMWKLKQQECPECDVLSLGTYSASRSFYGMADKVDVKTWKSTEHNMGLALTRNAYQKLIECTDTFCTYDDYNWDWTLQYLTVSCLPKFWKVLVPQIPRIFHAGDCGMHHKKTCRPSTQSAQIESLLNNNKQYMFPETLTISEKFTVVAISPPRKNGGWGDIRDHELCKSYRRLQ [MGAT2] | -0.501 | -0.689 | -0.0662 | 53.8 °C | 53.2 °C | -0.141
MAASQTSQTVASHVPFADLCSTLERIQKSKGRAEKIRHFREFLDSWRKFHDALHKNHKDVTDSFYPAMRLILPQLERERMAYGIKETMLAKLYIELLNLPRDGKDALKLLNYRTPTGTHGDAGDFAMIAYFVLKPRCLQKGSLTIQQVNDLLDSIASNNSAKRKDLIKKSLLQLITQSSALEQKWLIRMIIKDLKLGVSQQTIFSVFHNDAAELHNVTTDLEKVCRQLHDPSVGLSDISITLFSAFKPMLAAIADIEHIEKDMKHQSFYIETKLDGERMQMHKDGDVYKYFSRNGYNYTDQFGASPTEGSLTPFIHNAFKADIQICILDGEMMAYNPNTQTFMQKGTKFDIKRMVEDSDLQTCYCVFDVLMVNNKKLGHETLRKRYEILSSIFTPIPGRIEIVQKTQAHTKNEVIDALNEAIDKREEGIMVKQPLSIYKPDKRGEGWLKIKPEYVSGLMDELDILIVGGYWGKGSRGGMMSHFLCAVAEKPPPGEKPSVFHTLSRVGSGCTMKELYDLGLKLAKYWKPFHRKAPPSSILCGTEKPEVYIEPCNSVIVQIKAAEIVPSDMYKTGCTLRFPRIEKIRDDKEWHECMTLDDLEQLRGKASGKLASKHLYIGGDDEPQEKKRKAAPKMKKVIGIIEHLKAPNLTNVNKISNIFEDVEFCVMSGTDSQPKPDLENRIAEFGGYIVQNPGPDTYCVIAGSENIRVKNIILSNKHDVVKPAWLLECFKTKSFVPWQPRFMIHMCPSTKEHFAREYDCYGDSYFIDTDLNQLKEVFSGIKNSNEQTPEEMASLIADLEYRYSWDCSPLSMFRRHTVYLDSYAVINDLSTKNEGTRLAIKALELRFHGAKVVSCLAEGVSHVIIGEDHSRVADFKAFRRTFKRKFKILKESWVTDSIDKCELQEENQYLI [LIG4] | 0.0186 | 0.758 | -0.0399 | 48.4 °C | 49.6 °C | -0.329
MAAHRPGPLKQQNKAHKGGRHRGRGSAQRDGKGRLALKTLSKKVRKELSRVDQRHRASQLRKQKKEAVLAEKRQLGGKDGPPHQVLVVPLHSRISLPEAMQLLQDRDTGTVHLNELGNTQNFMLLCPRLKHRWFFTSARPGDLHVVLDMAKVADTILFLLDPLEGWDSTGDYCLSCLFAQGLPTYTLAVQGISGLPLKKQIDTRKKLSKAVEKRFPHDKLLLLDTQQEAGMLLRQLANQKQQHLAFRDRRAYLFAHAVDFVPSEENNLVGTLKISGYVRGQTLNVNRLLHIVGYGDFQMKQIDAPGDPFPLNPRGIKPQKDPDMAMEICATDAVDDMEEGLKVLMKADPGRQESLQAEVIPDPMEGEQTWPTEEELSEAKDFLKESSKVVKKVPKGTSSYQAEWILDGGSQSGGEGDEYEYDDMEHEDFMEEESQDESSEEEEEYETMTIGESVHDDLYDKKVDEEAEAKMLEKYKQERLEEMFPDEVDTPRDVAARIRFQKYRGLKSFRTSPWDPKENLPQDYARIFQFQNFTNTRKSIFKEVEEKEVEGAEVGWYVTLHVSEVPVSVVECFRQGTPLIAFSLLPHEQKMSVLNMVVRRDPGNTEPVKAKEELIFHCGFRRFRASPLFSQHTAADKHKLQRFLTADMALVATVYAPITFPPASVLLFKQKSNGMHSLIATGHLMSVDPDRMVIKRVVLSGHPFKIFTKMAVVRYMFFNREDVLWFKPVELRTKWGRRGHIKEPLGTHGHMKCSFDGKLKSQDTVLMNLYKRVFPKWTYDPYVPEPVPWLKSEISSTVPQGGME [TSR1] | 0.699 | 5.63 | -0.634 | 48.3 °C | 50.6 °C | 0.0446
MAGAAAESGRELWTFAGSRDPSAPRLAYGYGPGSLRELRAREFSRLAGTVYLDHAGATLFSQSQLESFTSDLMENTYGNPHSQNISSKLTHDTVEQVRYRILAHFHTTAEDYTVIFTAGSTAALKLVAEAFPWVSQGPESSGSRFCYLTDSHTSVVGMRNVTMAINVISTPVRPEDLWSAEERSASASNPDCQLPHLFCYPAQSNFSGVRYPLSWIEEVKSGRLHPVSTPGKWFVLLDAASYVSTSPLDLSAHQADFVPISFYKIFGFPTGLGALLVHNRAAPLLRKTYFGGGTASAYLAGEDFYIPRQSVAQRFEDGTISFLDVIALKHGFDTLERLTGGMENIKQHTFTLAQYTYVALSSLQYPNGAPVVRIYSDSEFSSPEVQGPIINFNVLDDKGNIIGYSQVDKMASLYNIHLRTGCFCNTGACQRHLGISNEMVRKHFQAGHVCGDNMDLIDGQPTGSVRISFGYMSTLDDVQAFLRFIIDTRLHSSGDWPVPQAHADTGETGAPSADSQADVIPAVMGRRSLSPQEDALTGSRVWNNSSTVNAVPVAPPVCDVARTQPTPSEKAAGVLEGALGPHVVTNLYLYPIKSCAAFEVTRWPVGNQGLLYDRSWMVVNHNGVCLSQKQEPRLCLIQPFIDLRQRIMVIKAKGMEPIEVPLEENSERTQIRQSRVCADRVSTYDCGEKISSWLSTFFGRPCHLIKQSSNSQRNAKKKHGKDQLPGTMATLSLVNEAQYLLINTSSILELHRQLNTSDENGKEELFSLKDLSLRFRANIIINGKRAFEEEKWDEISIGSLRFQVLGPCHRCQMICIDQQTGQRNQHVFQKLSESRETKVNFGMYLMHASLDLSSPCFLSVGSQVLPVLKENVEGHDLPASEKHQDVTS [MOCOS] | -1.28 | -1.96 | -0.123 | 53.3 °C | 53.6 °C | -0.13
